The values below come from the supplement of paper PMC11246515.

This data set is described as follows: total protein half-life in vivo (active degradation + dilution); higher = more stable protein.
The mark [1] stands for this setting: E. coli NCM3722 delta-clpP delta-lon delta-hslV, growth: N-lim chemostat, doubling time 6 h.
Where [2] appears, read: E. coli NCM3722 delta-lon, growth: N-lim chemostat, doubling time 6 h.
Where [3] appears, read: wild type E. coli NCM3722, growth: C-lim chemostat, doubling time 3 h.
Setting [4] is: wild type E. coli NCM3722, growth: C-lim chemostat, doubling time 6 h.
Where [5] appears, read: wild type E. coli NCM3722, growth: C-lim chemostat, doubling time 12 h.
The mark [6] stands for this setting: wild type E. coli NCM3722, growth: N-lim chemostat, doubling time 12 h.
Setting [7] is: wild type E. coli NCM3722, growth: P-lim chemostat, doubling time 6 h.
Setting [8] is: wild type E. coli NCM3722, growth: P-lim chemostat, doubling time 12 h.
Setting [9] is: E. coli NCM3722 delta-clpP, growth: N-lim chemostat, doubling time 6 h.
Where [10] appears, read: E. coli NCM3722 delta-hslV, growth: N-lim chemostat, doubling time 6 h.
Setting [11] is: E. coli NCM3722 delta-smpB, growth: N-lim chemostat, doubling time 6 h.
Where [12] appears, read: wild type E. coli NCM3722, growth: N-lim chemostat, doubling time 6 h.

± gives the standard deviation of the averaged measurements.

For the sequence “MLSRHINYFLAVAEHGSFTRAASALHVSQPALSQQIRQLEESLGVPLFDRSGRTIRLTDAGEVWRQYASRALQELGAGKRAIHDVADLTRGSLRIAVTPTFTSYFIGPLMADFYARYPSITLQLQEMSQEKIEDMLCRDELDVGIAFAPVHSPELEAIPLLTESLALVVAQHHPLAVHEQVALSRLHDEKLVLLSAEFATREQIDHYCEKAGLHPQVVIEANSISAVLELIRRTSLSTLLPAAIATQHDGLKAISLAPPLLERTAVLLRRKNSWQTAAAKAFLHMALDKCAVVGGNESR”, the “total protein half-life in vivo” value runs as follows: under setting [1], 5.07 ± 0.31 h; under setting [2], 6.84 h; under setting [3], 2.02 ± 0.18 h; under setting [4], 4.75 ± 0.2 h; under setting [5], 6.21 h; under setting [6], 12.6 h. Besides, the “total protein half-life in vivo” value under setting [7] was determined as 5.54 h and the “total protein half-life in vivo” value under setting [8] was 5.16 ± 2 h.
In the case of “MNKILLVDDDRELTSLLKELLEMEGFNVIVAHDGEQALDLLDDSIDLLLLDVMMPKKNGIDTLKALRQTHQTPVIMLTARGSELDRVLGLELGADDYLPKPFNDRELVARIRAILRRSHWSEQQQNNDNGSPTLEVDALVLNPGRQEASFDGQTLELTGTEFTLLYLLAQHLGQVVSREHLSQEVLGKRLTPFDRAIDMHISNLRRKLPDRKDGHPWFKTLRGRGYLMVSAS [P0AE88]”, the “total protein half-life in vivo” value reads like this: under setting [1], 5.73 ± 0.89 h; under setting [9], 4.96 ± 0.36 h; under setting [10], 4.848 ± 0.016 h; under setting [11], 5.11 ± 0.091 h; under setting [3], 3.28 ± 0.5 h; under setting [4], 5.44 ± 0.21 h. The “total protein half-life in vivo” value was found to be 11.4 ± 0.69 h under setting [5]; 6 ± 1.4 h under setting [12]; 8.76 ± 0.57 h under setting [6]; 6.01 ± 0.11 h under setting [7]; 10.9 ± 0.17 h under setting [8].
On to “MSQNVYQFIDLQRVDPPKKPLKIRKIEFVEIYEPFSEGQAKAQADRCLSCGNPYCEWKCPVHNYIPNWLKLANEGRIFEAAELSHQTNTLPEVCGRVCPQDRLCEGSCTLNDEFGAVTIGNIERYINDKAFEMGWRPDMSGVKQTGKKVAIIGAGPAGLACADVLTRNGVKAVVFDRHPEIGGLLTFGIPAFKLEKEVMTRRREIFTGMGIEFKLNTEVGRDVQLDDLLSDYDAVFLGVGTYQSMRGGLENEDADGVYAALPFLIANTKQLMGFGETRDEPFVSMEGKRVVVLGGGDTAMDCVRTSVRQGAKHVTCAYRRDEENMPGSRREVKNAREEGVEFKFNVQPLGIEVNGNGKVSGVKMVRTEMGEPDAKGRRRAEIVAGSEHIVPADAVIMAFGFRPHNMEWLAKHSVELDSQGRIIAPEGSDNAFQTSNPKIFAGGDIVRGSDLVVTAIAEGRKAADGIMNWLEV”, for which the “total protein half-life in vivo” value stood at 5.1 ± 0.5 h under setting [1]; 4.59 ± 0.21 h under setting [9]; 4.73 ± 0.05 h under setting [10]; 5.25 ± 0.19 h under setting [2]; 4.63 ± 0.37 h under setting [11]; 2.7 ± 0.04 h under setting [3]. The “total protein half-life in vivo” value is, setting by setting: under setting [4], 4.602 ± 0.032 h; under setting [5], 7.68 ± 0.49 h; under setting [12], 4.9 ± 0.24 h; under setting [6], 7.719 ± 0.058 h; under setting [7], 4.54 ± 0.39 h; under setting [8], 8.48 ± 0.63 h.
“METVFDALKAMGKATSIELAARLDISREEVLNELWELKKAGFVDKSAYTWRVADNNVQQEQPAQAELPEEITTATVAKISECDLTATIEQRGPQTADELATLFGTTSRKVASTLAMAISKGRLIRVNQGGKFRYCIPGDNLPAEPKAASVSPLWLSASSSACHGVLIITVITPSPTKNSATKMPEN”: the “total protein half-life in vivo” value runs as follows: under setting [1], 5.08 ± 0.26 h; under setting [11], 1.14 h; under setting [3], 1.42 h.
In the case of “MSQIFAYCRISTLDQTTENQRREIESAGFKIKPQQIIEEHISGSAATSERPGFNRLLARLKCGDQLIVTKLDRLGCNAMDIRKTVEQLTETGIRVHCLALGGIDLTSPTGKMMMQVISAVAEFERDLLLERTHSGIVRARGAGKRFGRPPVLNEEQKQAVFERIKSGVSISAIAREFKTSRQTILRAKAKLQTPDI”, the “total protein half-life in vivo” value under setting [1] was determined as 5.84 ± 0.17 h; the “total protein half-life in vivo” value under setting [2] amounted to 3.81 h; the “total protein half-life in vivo” value under setting [11] amounted to 1.43 h; the “total protein half-life in vivo” value under setting [3] is 1.59 h; the “total protein half-life in vivo” value under setting [5] amounted to 4.26 h.
Consider “MFILWYSASSTFGKDSDIVMGVRAQQKEKTRRSLVEAAFSQLSAERSFASLSLREVAREAGIAPTSFYRHFRDVDELGLTMVDESGLMLRQLMRQARQRIAKGGSVIRTSVSTFMEFIGNNPNAFRLLLRERSGTSAAFRAAVAREIQHFIAELADYLELENHMPRAFTEAQAEAMVTIVFSAGAEALDVGVEQRRQLEERLVLQLRMISKGAYYWYRREQEKTAIIPGNVKDE [P0ACU5]”, for which the “total protein half-life in vivo” value reads like this: under setting [1], 6.31 ± 0.35 h; under setting [9], 5.81 ± 0.25 h; under setting [10], 6.25 ± 0.1 h; under setting [11], 5.957 ± 0.021 h; under setting [3], 2.73 ± 0.18 h; under setting [4], 5.97 ± 0.75 h. Also, the “total protein half-life in vivo” value is, setting by setting: under setting [5], 11.2 ± 2.1 h; under setting [12], 5.71 ± 0.12 h; under setting [6], 10.4 ± 1.6 h; under setting [7], 5.31 ± 0.57 h; under setting [8], 10.88 ± 0.052 h.
“MARFVVLVIDSFGVGAMKDVTLVRPQDAGANTCGHILSQLPHLQLPTLETLGLINALGYAPGDMQPSDSATWGVAELQHEGGDTFMGHQEILGTRPLPPLRMPFRDVIDRVEQALVSAGWQVERRGDDLQFLWVNQAVAIGDNLEADLGQVYNITANLSVISFDDAIKIGRIVREQVQVGRVITFGGLLTDSQRILDAAESKEGRFIGINAPRSGAYDNGFQVVHMGYGVDEKVQVPQKLYEAGVPTVLVGKVADIVNNPYGVSWQNLVDSQRIMDITLNEFNTHPTAFICTNIQETDLAGHAEDVARYAERLQVVDRNLARLVEAMQPDDCLVVMADHGNDPTIGHSHHTREVVPVLVYQQGMIATQLGVRTTLSDVGATVCEFFRAPPPQNGRSFLSSLRFAGDTL”: the “total protein half-life in vivo” value under setting [1] amounted to 4.67 h.
